Source: patent US20100254972A1

Experiments:
[1] = molecular target: IL-RI-Fc (a fusion of IL-1RI and Fc); test: phage-displayed dAb; trypsin 10 µg/ml, 1 hr, room temp; biopanning on 1 nM IL-1RI-Fc
[2] = molecular target: IL-RI-Fc (a fusion of IL-1RI and Fc); test: phage-displayed dAb; trypsin 100 µg/ml, overnight, room temp; biopanning on 1 nM IL-1RI-Fc
[3] = molecular target: IL-RI-Fc (a fusion of IL-1RI and Fc); test: phage-displayed dAb; no trypsin, overnight, 37 C; biopanning on 1 nM IL-1RI-Fc
IL-1R1 = test: Receptor Binding Assay, inhibition of IL-1 binding to IL-RI
[4] = molecular target: IL-RI-Fc (a fusion of IL-1RI and Fc); test: phage-displayed dAb; no trypsin, 1 hr, room temp; biopanning on 1 nM IL-1RI-Fc
[5] = molecular target: IL-RI-Fc (a fusion of IL-1RI and Fc); test: phage-displayed dAb; trypsin 10 µg/ml, overnight, room temp; biopanning on 1 nM IL-1RI-Fc
[6] = molecular target: IL-RI-Fc (a fusion of IL-1RI and Fc); test: phage-displayed dAb; no trypsin, overnight, room temp; biopanning on 1 nM IL-1RI-Fc
[7] = molecular target: IL-RI-Fc (a fusion of IL-1RI and Fc); test: phage-displayed dAb; trypsin 100 µg/ml, 1 hr, room temp; biopanning on 1 nM IL-1RI-Fc
[8] = molecular target: IL-RI-Fc (a fusion of IL-1RI and Fc); test: phage-displayed dAb; trypsin 100 µg/ml, overnight, 37 C; biopanning on 1 nM IL-1RI-Fc
[9] = molecular target: IL-RI-Fc (a fusion of IL-1RI and Fc); test: phage-displayed dAb; trypsin 10 µg/ml, overnight, 37 C; biopanning on 1 nM IL-1RI-Fc

IL-RI-Fc (a fusion of IL-1RI and Fc), sequence (P14778 whole entry, the tested form may be a part): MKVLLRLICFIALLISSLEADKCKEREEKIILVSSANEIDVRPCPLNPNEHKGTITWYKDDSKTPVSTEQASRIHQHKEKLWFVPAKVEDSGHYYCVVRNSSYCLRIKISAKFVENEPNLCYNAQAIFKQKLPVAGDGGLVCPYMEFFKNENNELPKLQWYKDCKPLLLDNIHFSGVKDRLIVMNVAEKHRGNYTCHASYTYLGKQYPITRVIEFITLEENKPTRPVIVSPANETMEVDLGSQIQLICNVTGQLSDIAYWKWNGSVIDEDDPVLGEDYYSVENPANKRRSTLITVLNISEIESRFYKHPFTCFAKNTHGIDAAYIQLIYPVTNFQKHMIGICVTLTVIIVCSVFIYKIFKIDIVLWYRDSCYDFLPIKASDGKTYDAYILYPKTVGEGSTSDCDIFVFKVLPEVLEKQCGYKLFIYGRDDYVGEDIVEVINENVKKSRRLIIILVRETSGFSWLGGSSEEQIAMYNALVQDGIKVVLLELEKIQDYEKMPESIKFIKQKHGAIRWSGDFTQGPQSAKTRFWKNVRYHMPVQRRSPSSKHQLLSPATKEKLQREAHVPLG
IL-1R1, sequence (P14778 whole entry, the tested form may be a part): as above

B1: DOM4-130-54 (protein)
VL: DIQMTQSPSSLSASVGDRVTITCRASQDIYLNLDWYQQKPGKAPKLLINFGSELQSGVPSRFSGSGYGTDFTLTISSLQPEDFATYYCQPSFYFPYTFGQGTKVEIKR
Q: B1 was tested. Which titre of phage after biopanning [1] did it give?
A: 7.2e+09

Q: What about the titre of phage after biopanning [2] of the same binder?
A: 2.16e+09

Q: What about the titre of phage after biopanning [3] of the same binder?
A: 7.2e+09

Q: And the IC50 (IL-1R1)?
A: 0.28 nM

Q: And the titre of phage after biopanning [4]?
A: 6.6e+09

Q: And the titre of phage after biopanning [5]?
A: 7.2e+09

Q: And the titre of phage after biopanning [6]?
A: 7.8e+09

Q: And the titre of phage after biopanning [7]?
A: 1.8e+10

Q: And the titre of phage after biopanning [8]?
A: 2.04e+06

Q: And the titre of phage after biopanning [9]?
A: 3.84e+08
